Measured values taken from patent US20250197513A1 (University of Texas, published 2025).

T1: recombinant OSMR protein (Sino Biologicals, 11226-H08H), extracellular domain of OSMR (UniProt Q99650 28-740)
T1 construct: extracellular domain; also called OSMR antigen
T1 sequence (looked up): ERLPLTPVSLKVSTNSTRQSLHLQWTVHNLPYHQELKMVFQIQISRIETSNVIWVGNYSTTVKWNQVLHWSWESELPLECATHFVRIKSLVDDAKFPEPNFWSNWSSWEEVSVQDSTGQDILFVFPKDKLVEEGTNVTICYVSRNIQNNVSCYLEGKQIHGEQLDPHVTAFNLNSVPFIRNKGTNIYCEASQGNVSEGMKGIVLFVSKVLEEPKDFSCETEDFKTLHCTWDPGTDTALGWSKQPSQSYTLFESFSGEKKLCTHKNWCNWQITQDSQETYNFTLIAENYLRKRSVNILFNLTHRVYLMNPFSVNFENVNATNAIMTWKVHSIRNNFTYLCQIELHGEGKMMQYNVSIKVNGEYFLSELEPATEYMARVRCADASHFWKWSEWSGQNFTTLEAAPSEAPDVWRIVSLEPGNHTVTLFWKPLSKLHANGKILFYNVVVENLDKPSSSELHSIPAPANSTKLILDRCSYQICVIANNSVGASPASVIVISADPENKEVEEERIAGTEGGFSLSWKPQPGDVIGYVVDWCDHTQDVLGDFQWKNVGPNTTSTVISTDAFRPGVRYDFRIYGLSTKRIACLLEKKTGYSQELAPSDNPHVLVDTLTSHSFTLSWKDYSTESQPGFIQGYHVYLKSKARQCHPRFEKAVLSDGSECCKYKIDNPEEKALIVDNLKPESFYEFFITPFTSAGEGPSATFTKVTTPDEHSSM

B1: H13 monoclonal antibody (antibody, V domains shown)
VH: QVQLVQSGAEVKKPGASVKVSCKVSGYSFSSHGISWVRQAPGQGLEWMGWISAYNGNTNYAQNLQGRVRMTTDTSTNTAHMELRSLRSDDTAVYYCARDQDEANWNNNYYFDYWGQGTLVTVSS
VL: NFMLTQPHSVSESPGKTVTISCTGSSGSIASKYVQWYQQRPGSAPTSVIYEDNQRPSGVPDRFSGSIDRSSNSASLTISGLKTEDEADYHCQSYDSANRVVFGGGTKVTVL
notes: also called H13 mAb
B2: B19 monoclonal antibody (antibody, V domains shown)
VH: QVELVESGGGLVQPGRSLRLSCAASGFTFDDYAMHWVRQAPGKGLEWVSGISWNSGSIGYADSVKGRFTISRDNAKNSLYLQMNSLRAEDTALYYCAKDIGVYYYGMDVWGQGTTVSVSS
VL: QSALTQPPSASGTPGQKVTISCSGSSSNIGSSPVNWYQQFPGPAPKLLIHSNNQRPSGVPDRFSGSKSGTSASLAISGLQSDDEADYYCAAWDDSLNAYVFGTGTKVTVL
notes: also called B19 mAb
B3: H16 monoclonal antibody (antibody, V domains shown)
VH: QVQLLQSGAEVKKPGSSVKVSCKASGGTFSSYAISWVRQAPGQGLEWMGGIIPIFGTANYAQKFQGRVTITADESTSTAYMELSSLRSEDTAVYYCASSYYGSGTTWFDPWGQGTLVTVSS
VL: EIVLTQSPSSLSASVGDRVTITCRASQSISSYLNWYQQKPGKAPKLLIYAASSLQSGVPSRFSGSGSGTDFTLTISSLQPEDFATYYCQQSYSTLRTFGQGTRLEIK
notes: also called H16 mAb
B4: H11 monoclonal antibody (antibody, V domains shown)
VH: EVQLVQSGPEVRKPGASVQISCKASGYTFTTSYIHWVRQAPGQGLEWLGLVNPNDGSTTYTQNFQGRVTMTSDTSTSTVYMELSRVTYADTAVYYCAKDIRDYVWGTYRYESAFDIWGQGTTVTVSS
VL: QAVVTQPPSVSVSPGQTASITCSGDKLGDKYVSWYQQKPGQPPILVMYQDNRRPSGIPERFSGSNSGNTATLTISGTQAMDEADYYCQTWDSSTASYVFGTGTKVTVL
notes: also called H11 mAb
B5: B08 monoclonal antibody (antibody, V domains shown)
VH: QVQLVQSGGGLVKPGGSLRLSCAASGFTFSSYSMNWVRQAPGKGLEWVSSISSSSSYIYYADSVKGRFTISRDNAKNSLYLQMNSLRAEDTAVYYCARDIALPYYGMDVWGQGTMVTVSS
VL: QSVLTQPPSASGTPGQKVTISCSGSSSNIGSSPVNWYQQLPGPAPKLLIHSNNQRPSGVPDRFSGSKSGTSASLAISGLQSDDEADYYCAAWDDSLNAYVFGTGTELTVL
notes: also called B08 mAb
B6: B05 monoclonal antibody (antibody, V domains shown)
VH: QVQLVESGGGVVRPGGSLRLSCAASGFTFDDYGMSWVRQAPGKGLEWVSGINWNGGSTGYADSVKGRFTISRDNAKNSLYLQMNSLRAEDTALYHCARVNYDSSGLRGAFDIWGQGTTVTVSS
VL: AIQLTQSPSSLSASVGDRVTITCQASQDISNYLNWYQQKPGKAPKLLIYDASNLETGVPSRFSGSGSGTDFTFTISSLQPEDIATYYCQQYDNLPTFGQGTRLEIK
notes: also called B05 mAb
B7: B16 monoclonal antibody (antibody, V domains shown)
VH: QVELVESGGGVVRPGGSLRLSCAASGFTFDDYGMSWVRQAPGKGLEWVSGINWNGGSTGYADSVKGRFTISRDNAKNSLYLQMNSLRAEDTALYHCARVNYDSSGLRGAFDIWGQGTTVTVSS
VL: DVQMTQSPSSLSASVGDRVTITCQASQDISNYLNWYQQKPGKAPKLLIYDASNLETGVPSRFSGSGSGTDFTFTISSLQPEDIATYYCQQYDNLPTFGQGTRLEIK
notes: also called B016; B16 mAb
B8: B17 monoclonal antibody (antibody, V domains shown)
VH: QVELQESGPGLVQPSGTLSLTCAVSGGSMGSSNWWSWVRQPPGKGLEWIGEVYHTGSTNYNPSLRSRVTISVDKSKKQFSLELTSVTAADTAVYFCARDLTVTGSFDIWGQGTMVTVSS
VL: QAVVTQPRSVSGSPGQSVTISCTGSSSDVGAYNYVSWYQQHPGKAPKLIISDVSDWPSGVPDRFSGSKSGNTASLTISGLQADDEADYYCFSYAGNYNWVFGGGTKLTVL
notes: also called B17 mAb
B9: B10 monoclonal antibody (antibody, V domains shown)
VH: QVQLVQSGAEVKKPGASVKVSCKASGYTFTSYYMHWVRQAPGQGLEWMGIINPSGGSTSYAQKFQGRVTMTRDTSTSTVYMELSSLRSEDTAVYYCARDKAHDSSGYYDAFDIWGQGTTVTVSS
VL: QSALTQPPSASGTPGQRVTISCSGSGSNIGSNTVNWYQQLPGTAPRLLIYRNNQRPSGVPDRFSGSKSGTSASLAISGLESEDEADYFCATWDDSLNDYVFATGTQLTVL
notes: also called B010; B10 mAb
B10: B12 monoclonal antibody (antibody, V domains shown)
VH: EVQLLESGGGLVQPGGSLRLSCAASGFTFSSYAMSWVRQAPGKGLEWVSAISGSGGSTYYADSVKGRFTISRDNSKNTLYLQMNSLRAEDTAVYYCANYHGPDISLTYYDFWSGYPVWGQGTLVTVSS
VL: QSALTQPHSVSESPGKTVTISCTRSSGSIANNHVQWYQQRPGSAPIIVIYEDNQRPSGVPDRFSGSIDSSSNSASLTLSGLKTEDEAAYYCQSYDDNNWVFGGGTKVTVL
notes: also called B12 mAb
B11: B09 monoclonal antibody (antibody, V domains shown)
VH: QVQLVQSGAEVKKPGSSVKVSCKTSGGTFSSYAISWVRQAPGQGLEWMGGIIPISGTANYAQKLQGRVTITADESTSTAYMELSSLRSEDTAVYYCGRGDYCNGGSCSYTNYYGMDVWGQGTMVTVSS
VL: QAVVTQPPSASGTPGQRSTISCSGGSANIGSNSVHWYQQFPGTAPKLLIFNNNQRPSGVPDRFSGSKSGTSASLAISGLQSEDEADYFCAAWDDSLKGPVFGGGTKVTVL
notes: also called B09 mAb
B12: B13 monoclonal antibody (antibody, V domains shown)
VH: EVQLVQSGAEVKKPGSSVKVSCKASGGTFSSYAITWVRQAPGQGLEWMGGIIPIVGTANYAQKFQGRLTITADESTSTAYMELSSLRSEDTAVYYCARGDYCSGGSCSYTNYYGMDVWGQGTTVTVSS
VL: not shown
notes: also called B13 mAb
B13: H12 monoclonal antibody (antibody, V domains shown)
VH: EVQLVQSGAEVKKPGSSVKVSCKTSGGTFSSYAISWVRQAPGQGLEWMGGIIPISGTANYPQKLQGRVTITADESTSTAYMELSSLRSEDTAMYYCARGDYCNGGSCSYTNYYGMDVWGQGTTVIVSS
VL: QSALTQPPSVSVAPGKTAMITCGGTNIRSQNVHWYQQKPGQAPVLVIYWDSSRPSGIPERISGSNSGSTATLTISRVEAGDEADYYCQVWDATRDHVVFGGGTKVTVL
notes: also called H12 mAb
B14: H14 monoclonal antibody (antibody, V domains shown)
VH: QVQLVQSGAEVKKPGSSVKVSCKASGGTFSSYAISWVRQAPGQGLEWMGGIIPIFGTANYAQKFQGRVTITADESTSTAYMELSSLRSEDTAVYYCAREATPFMILGAFDIWGQGTMVIVSS
VL: not shown
notes: also called H14 mAb
B15: H09 monoclonal antibody (antibody, V domains shown)
VH: EVQLVQSGAEVKKPGASVKVSCKASGYTFTGYYMHWVRQAPGHGLEWMGWINPNSGGTNYAQKFQGRVTMTRDTSISTAYMELSGLRSDDTAVYYCARDKGAWSGSYPGYNWFDPWGQGTLVTVSS
VL: QAVVTQPPSASGTPGQRVTISCSGSSSTIGTNPVNWYRHLPGTAPKLLIYSNNQRPSGVPDRVSGSKSGTSASLAISGLQSEDEADYYCATLDDSLNGYVFGTGTKVTVL
notes: also called H09 mAb
B16: H10 monoclonal antibody (antibody, V domains shown)
VH: QVQLVQSGAEVKKPGASVKVSCKASGYTFTSYYMHWVRQAPGQGLEWMGIINPSGGSTSYAQKFQGRVTMTRDTSTSTVYMELSSLRSEDTAVYYCARGTTYDAFDIWGQGTTVSVSS
VL: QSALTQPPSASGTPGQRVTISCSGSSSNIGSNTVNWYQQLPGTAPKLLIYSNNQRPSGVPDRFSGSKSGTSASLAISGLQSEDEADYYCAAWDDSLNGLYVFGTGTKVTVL
notes: also called H10 mAb
B17: B01 monoclonal antibody (antibody, V domains shown)
VH: QVQLVQSGAEVKKPGASVKVSCKASGYSFTSYFIHWVRQAPGQGLEWMGIINPAGGNTNYAQRFQGRVTMTRDTSTSTVYMELSSLRSDDTAVYYCARDKDYGEGAFDLWGQGTMVSVSS
VL: QSALTQPPSVSGAPGQRVTISCTGSSSNIGAGYDVHWYQQLPGTAPKLLIYGNSNRPSGVPDRFSGSKSGTSASLAITGLQAEDEADYYCQSYDSSLSGWVFGGGTKVTVL
notes: also called B01 mAb

Biological target: T1, recombinant OSMR protein (Sino …)
Test: screening of full-length IgG1 clones on recombinant OSMR extracellular domain

Binding result, binds:
B1
B2
B3
B4
B5
B6
B7
B8
B9
B10
B11
B12
B13
B14
B15
B16
B17
